Laboratory results: the supplement of paper PMC9170038

Test system: MS2 coat protein
Assay: apparent KD of MS2 coat protein; designed switch direction (-1 OFF switch, 1 ON switch): -1; higher = weaker reporter binding
How it was run: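 An oligonucleotide input, 200 uM small-molecule ligand, or no input was present during titration of SNAP-549-labelled MS2 coat protein, which was doubled from 0.7 or 1.5 nM to 3 µM. Designed RNA switches had been transcribed on Illumina chips by stalled E. coli RNA polymerase. Apparent KD per design is the median over clusters of curves fitted to normalised cluster fluorescence.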

[1] = Eterna round: R95, input ligand: FMN 200 uM
[2] = Eterna round: R95, input ligand: microRNA oligo, concentration not stated
[3] = Eterna round: R95, input ligand: none
[4] = input ligand: microRNA oligo, concentration not stated

Sequence | apparent KD of MS2 coat protein [1] | apparent KD of MS2 coat protein [2] | apparent KD of MS2 coat protein [3] | apparent KD of MS2 coat protein (input ligand: FMN 200 uM) | apparent KD of MS2 coat protein [4] | apparent KD of MS2 coat protein (input ligand: none)
GUAUGUAACUAGGAUAUCAGCAUACUUCAAUGUUGAGAAGGAGUUACAUGAGGAUCACCCAUGUAUCCAACAUG [Exclusion 6 - 3:b] (puzzle: Exclusion 6) | 43.4 nM | 52.5 nM | 69.1 nM |  |  | 
AGUACUAUCACGAAAGUGAUAGUACGAGGAGCAAGUGGAACAUGAGGAUCACCCAUGUCCUCAUCUGCUCGUCUUAU [salish99-s2-v2-x008] (Eterna round: R96, puzzle: Sensor v2, turn-off variant 2) |  |  |  | 13.5 nM | 172 nM | 16.3 nM
UGUAUAGGAGUGAGGAUAUGGAAACUGGAAAAGGACCAGAAGGCACAUGAGGAUCACCCAUGUGGUUCUCAAGA [Eternabot (Original) Solution 50] (Eterna round: R97, puzzle: Brourd's mod of Exclusion 4) |  |  |  | 1210 nM |  | 373 nM
UAGUUAGCGUGUGGCACAUACAUGAGGAUCACCCAUGUUAGCUUAUAUAUUGCUCGUCUUAUAACAACACUUAACUU [Mod JX-Electric-eye6] (Eterna round: R97, puzzle: Sensor, turn-off variant 1) |  |  |  | 18.7 nM |  | 19 nM
AAAACUCACGUAGGAUAUCAUUCCUUAAGGUAGUGAGAAGGACGUGACUACAUGUCCUAAAACAUGAGGAUCACCCAUGUAGGC [Riis] (Eterna round: R96, puzzle: Exclusion NG 1) |  |  |  |  | 24.2 nM | 
AGAGUGUGAGGAUAUAUGGUGAAGAUGAAGGGAUAGAAGGAGUAGAAGGUACAUGAGGAUCACCCAUGUUAGGA [JR_Exclu4_Sub076] (puzzle: Exclusion 4) |  | 23.1 nM |  |  |  | 
AAUAGUCGGUAGGAUAUCCACGGAUGACCGGCAGGAGAAGGGCCGACUUGAGGAUCACCCAAGUAUGGUCCAAC [Ortiqumate] (Eterna round: R97, puzzle: Exclusion 6) |  |  |  | 25.1 nM |  | 13.9 nM
CUCAUGUGAGGAUAUAGUACUUCUUCUAUUAUUAUUGAGUACUAGAAGGCACAUGAGGAUCACCCAUGUAGUAC [Ex4 - 3 - 44] (puzzle: Exclusion 4) |  | 23.8 nM |  |  |  | 
AGGUAGUCAGGAUAUUAAGAGUAGCGGGAUAACGCUACGAGUGAGAAGGGACAUGAGGAUCACCCAUGUUUUUU [JR_Ex4_Sub072] (Eterna round: R97, puzzle: Exclusion 4) |  |  |  | 22 nM |  | 22.5 nM
GGUGGACAUGAGGAUCACCCAUGUGAGGAUAUCGGCCGGUUCGCGGUGGCUGGCGUCUCGAGAAGGCGCAUAGU [Exclusion 1 V71] (puzzle: Exclusion 1) |  | 28.7 nM |  |  |  | 
UCAAGUAUGUAGGAUAUGAUGUGAUUAUACAUAUCAGAAGGACGUACAUGAGGAUCACCCAUGUAACUUGCAUG [Exclusion 6 - B - 12:c] (puzzle: Exclusion 6) | 29.8 nM | 59.1 nM | 52.6 nM |  |  | 
UUUAAUCAUGUAGGAUAUGCGUGGCGAAGCUAUGCAGAAGGACAUGAGGAUCACCCAUGUUCUAGCGUCUGCGUACAGAUGCUA [JL ENG1 1.36] (Eterna round: R96, puzzle: Exclusion NG 1) |  |  |  | 334 nM | 33 nM | 47 nM
GUCAUACAUGAGGAUCACCCAUGUGAGGAUAUGAGUGGUGCUGCUAGGUAGUAUAGACUCAGAAGGCGCAUGAU [Malcxlusion 1 - Jieux - Exclusion 1] (Eterna round: R97, puzzle: Exclusion 1) |  |  |  | 288 nM |  | 105 nM
UGUACUAUGCGAGCUGACUUGCGUAGUGCAGCAGGUGAAACAUGAGGAUCACCCAUGUCCUCAUUUGCUCGUCUUAU [SL-sv3-2.02 JL mod] (Eterna round: R96, puzzle: Sensor v3, turn-off variant 2) |  |  |  | 45.2 nM | 399 nM | 43.1 nM
CAGUACUGAGGAUAUACAUGAGGAUCACCCAUGUUUUCCAGCUAGGAAACUAGCAAAUGUAGAAGGCAGUACUG [Salish 065 m5] (Eterna round: R97, puzzle: Exclusion 3) |  |  |  | 253 nM |  | 25.4 nM
UAAAUGUGAGGAUAUCAGGUGUGCUAGAGAACUGGUACAUCUGAGAAGGCACAUGAGGAUCACCCAUGUUCUUC [Mat - Exclusion 4 - Mod of JL - D56] (puzzle: Exclusion 4) |  | 38.3 nM |  |  |  | 
UUUUAGUCAGGAUAUACAUGAGGAUCACCCAUGUAAAAUUUUAAUUUAAUUUUAAGGUGUAGAAGGGACAAUAA [Ex3 #8] (Eterna round: R97, puzzle: Exclusion 3) |  |  |  | 32.2 nM |  | 31.3 nM

Sequence | apparent KD of MS2 coat protein [1] | apparent KD of MS2 coat protein [2] | apparent KD of MS2 coat protein [3] | apparent KD of MS2 coat protein (input ligand: FMN 200 uM) | apparent KD of MS2 coat protein [4] | apparent KD of MS2 coat protein (input ligand: none)
AGUUGGCGAGGAUAUACAUGAGGAUCACCCAUGUGAAAUAGAAGAGUGAGGAAGAAAAGUAGAAGGCGCUGACA [Mat - Exclusion 3 - Mod of Salish D40] (puzzle: Exclusion 3) | 134 nM | 69 nM | 107 nM |  |  | 
ACGUGAUAUCUGUCGGUGGACAUGAGGAUCACCCAUGUAAGCUUCUUGCUCGUCUUAUAACCCGGUGACAGACCUUC [Zalaso] (puzzle: Sensor v3, turn-off variant 1) | 42.8 nM | 449 nM | 47 nM |  |  | 
AAACAACGGACAGGAUAUCCGAAAAUAAAGCUAGGAGAAGGGUCGAAAACAUGAGGAUCACCCAUGUGCGUGGCGGGUUCUUAG [Zaerqu] (Eterna round: R96, puzzle: Exclusion NG 1) |  |  |  | 25.6 nM | 13.4 nM | 21.2 nM
UUGGUUGUGGUAGGAUAUCCGUUGGAAACCGUCGGAGAAGGACCACAGUCACUGGGUCUUUGUCUGGUGGAGUGGAAGAACCAU [pwkr exNG1 F6.20] (Eterna round: R96, puzzle: Exclusion NG 1) |  |  |  | 283 nM | 157 nM | 218 nM
CUGAGCAGACGGAGAUCCAACAUGAGGAUCACCCAUGUCUCAAAAGCUCUUUGCUCGUCUUAUCCUCCUCUGUUCUC [Leriedor] (puzzle: Sensor v3, turn-off variant 1) | 31.5 nM | 333 nM | 30.1 nM |  |  | 
CUGGUCCGAGGAUAUAUUAAGUGAUACAUGAGGAUCACCCAUGUAAUUUGAUGGAAGUAAAUAGAAGGCGGACUAG [Mat - Exclusion 5 - JL mod - D45] (puzzle: Exclusion 5) | 34.2 nM | 43 nM | 74 nM |  |  | 
AGAAAUGCCCAUGGCCGCAAGCUUCUUGCUUGUCUUACCACAUGAGGAUCACCCAUGUGACAUGGGCUCCUUAUAAU [Xeceenqu] (puzzle: Sensor v3, turn-off variant 2) | 12.5 nM | 9.59 nM | 11.3 nM |  |  | 
CGAGCUAAUGUGAGGAUAUACCUAUGGAUACAUAGGUAGAAGGCACAUGAGGAUCACCCAUGUCCUAUAGCUCG [jl-bmx4-4.55] (Eterna round: R97, puzzle: Brourd's mod of Exclusion 4) |  |  |  | 241 nM |  | 304 nM
UACAUGAGGAUCACCCAUGUUUUGUCGUGUAUGGUAUUUAUCUAGGAUAUCAAUUUGUUUAUUUAUGAGAAGGAGAAUAUUAAU [JMF's solution 16] (Eterna round: R96, puzzle: Exclusion NG 3) |  |  |  | 39.2 nM | 29.8 nM | 41 nM
GCUUGUGGGCAAGGAUAUCCUACGUUGUUCUGGUUCGUGUCUGUCACAUGAGGAUCACCCAUGUGGGAGAAGGUGCAUUUGGUG [Design 61] (Eterna round: R96, puzzle: Exclusion NG 2) |  |  |  |  | 12.9 nM | 
CUCGUAUUAUACAUGAGGAUCACCCAUGUGGUCACCACUCACGAGGAUAUCCCGGGAAACCGAACGGAGAAGGUGUAGAGUCAU [Eternabot solution 44] (Eterna round: R96, puzzle: Exclusion NG 3) |  |  |  | 164 nM | 163 nM | 196 nM
CUAUCCAGAGGAUAUACGAGAUCGAAAGAUCGGCGAUCCCUACAUGAGGAUCACCCAUGUAGAAGGCUGGAUAG [Mod 17 - Jieux - Exclusion 2] (Eterna round: R97, puzzle: Exclusion 2) |  |  |  | 83.8 nM |  | 19.7 nM
GUUAACGCAGGAUAUUAGUACAUGUACAUGAGGAUCACCCAUGUUUAGUGGGUCUAGGAAUAAGAAGGGCGAUGAA [JR_Ex5_Sub007] (Eterna round: R97, puzzle: Exclusion 5) |  |  |  | 280 nM |  | 535 nM
UUGAGCAGACGGAGAUCCAACAUGAGGAUCACCCAUGUCUCAUAAGCUUUUUGUUCAUCUUAUUGUACCUUGGUGCU [Mat - Sensor v3 - turn-off var 1 - JL Mod - D23] (puzzle: Sensor v3, turn-off variant 1) | 47 nM | 8.53 nM | 40.5 nM |  |  | 
UUUAAUUUUUUUUUUUUACAAGCUUUUUGCUCGUCUUAUACAUGAGGAUCACCCAUGUGGGUAGAGAGUAAAUUAUC [JMF 59] (Eterna round: R96, puzzle: Sensor v3, turn-off variant 2) |  |  |  | 21.1 nM | 102 nM | 19.3 nM
AAUAGGACAGGAUAUCCGGAGUCGAACAUGAGGAUCACCCAUGUGAUGAGGAUGUUCGCUGGAGAAGGGUCGGGCU [Teonus] (puzzle: Exclusion 5) | 83.9 nM | 56.5 nM | 53.7 nM |  |  | 
